# Experimental data published in PMC9482650, “Quantitative fragmentomics allow affinity mapping of interactomes” (Nature Communications, 2022).
# Changes are numbered by the printed parent chain.
# T1: SIPA1L2, Q9P2F8
# T1 sequence (Q9P2F8 945-1036, limits assumed, looked up): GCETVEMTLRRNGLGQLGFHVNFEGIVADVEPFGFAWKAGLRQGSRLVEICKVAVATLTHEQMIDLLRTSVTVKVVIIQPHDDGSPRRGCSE
# T2: ARHGEF11, O15085
# T2 sequence (O15085 42-136, limits assumed, looked up): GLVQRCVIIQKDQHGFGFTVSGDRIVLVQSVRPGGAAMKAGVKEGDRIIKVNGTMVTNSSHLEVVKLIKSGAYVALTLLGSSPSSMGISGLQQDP
# T3: APBA2_2, Q99767
# T3 sequence (Q99767 654-744, limits assumed, looked up): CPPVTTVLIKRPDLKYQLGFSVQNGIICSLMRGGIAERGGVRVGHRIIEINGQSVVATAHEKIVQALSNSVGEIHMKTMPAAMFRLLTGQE
# T4: DVL3, Q92997
# T4 sequence (Q92997 244-331, limits assumed, looked up): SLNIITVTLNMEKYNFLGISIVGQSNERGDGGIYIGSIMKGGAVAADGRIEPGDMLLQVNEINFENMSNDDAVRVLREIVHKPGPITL
# T5: LIN7A, O14910
# T5 sequence (O14910 103-200, limits assumed, looked up): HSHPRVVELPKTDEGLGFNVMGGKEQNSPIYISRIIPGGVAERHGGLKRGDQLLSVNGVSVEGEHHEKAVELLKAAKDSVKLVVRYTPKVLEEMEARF
# T6: ARHGAP21, Q5T5U3
# T6 sequence (Q5T5U3 45-169, limits assumed, looked up): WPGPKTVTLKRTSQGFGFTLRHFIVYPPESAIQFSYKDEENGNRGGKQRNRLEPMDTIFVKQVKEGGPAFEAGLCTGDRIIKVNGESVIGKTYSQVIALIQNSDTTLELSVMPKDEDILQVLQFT
# T7: MPP2, Q14168
# T7 sequence (Q14168 180-250, limits assumed, looked up): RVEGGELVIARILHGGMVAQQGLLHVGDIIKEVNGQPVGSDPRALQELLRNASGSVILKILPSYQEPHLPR
# T8: DLG3_3, Q92796
# T8 sequence (Q92796 374-475, limits assumed, looked up): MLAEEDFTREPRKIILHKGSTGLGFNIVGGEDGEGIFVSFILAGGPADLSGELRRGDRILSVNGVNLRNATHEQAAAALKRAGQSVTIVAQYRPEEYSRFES
# T9: SNTA1, Q13424
# T9 sequence (Q13424 82-180, limits assumed, looked up): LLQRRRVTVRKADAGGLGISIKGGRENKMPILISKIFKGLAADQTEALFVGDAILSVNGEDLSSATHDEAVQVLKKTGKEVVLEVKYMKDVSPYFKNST
# T10: LNX2_3, Q8N448
# T10 sequence (Q8N448 463-564, limits assumed, looked up): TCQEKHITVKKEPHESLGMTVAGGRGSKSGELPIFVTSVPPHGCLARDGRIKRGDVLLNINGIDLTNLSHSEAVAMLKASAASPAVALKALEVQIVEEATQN
# T11: LIN7B, Q9HAP6
# T11 sequence (Q9HAP6 88-185, limits assumed, looked up): T5 sequence (O14910 103-200, limits assumed, looked up) with S2A, V20I, I35V, E42D, H65Q, K77Q, D78G, K89R
# T12: PARD3B_1, Q8TEW8
# T12 sequence (Q8TEW8 196-299, limits assumed, looked up): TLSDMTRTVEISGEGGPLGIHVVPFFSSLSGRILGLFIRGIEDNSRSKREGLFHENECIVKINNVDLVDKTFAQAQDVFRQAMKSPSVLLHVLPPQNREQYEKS
# Legend:
# Assay in all cases: holdup assay
# Design in all cases: key: below the threshold = too weak to quantify, mostly under pKd 3.1 to 4
# Conditions in all cases: plain residues with an end cap or a label only (N-terminal biotin on a linker: ttds)
# MAST1, Q9Y2H9 = target: MAST1, Q9Y2H9
# SCRIB_1, Q14160 = target: SCRIB_1, Q14160
# SIPA1L2, Q9P2F8 = target: T1, SIPA1L2, Q9P2F8
# HTRA1, Q92743 = target: HTRA1, Q92743
# ARHGEF11, O15085 = target: T2, ARHGEF11, O15085
# APBA2_2, Q99767 = target: T3, APBA2_2, Q99767
# PDLIM1, O00151 = target: PDLIM1, O00151
# DVL3, Q92997 = target: T4, DVL3, Q92997
# HTRA2, O43464 = target: HTRA2, O43464
# LIN7A, O14910 = target: T5, LIN7A, O14910
# CASK, O14936 = target: CASK, O14936
# GRASP, Q7Z6J2 = target: GRASP, Q7Z6J2
# NHERF2_2, Q15599 = target: NHERF2_2, Q15599
# ARHGAP21, Q5T5U3 = target: T6, ARHGAP21, Q5T5U3
# IL16_1, Q14005 = target: IL16_1, Q14005
# MPP2, Q14168 = target: T7, MPP2, Q14168
# DLG3_3, Q92796 = target: T8, DLG3_3, Q92796
# GRIP2_6, Q9C0E4 = target: GRIP2_6, Q9C0E4
# SNTA1, Q13424 = target: T9, SNTA1, Q13424
# NOS1, P29475 = target: NOS1, P29475
# FRMPD4, Q14CM0 = target: FRMPD4, Q14CM0
# LNX2_3, Q8N448 = target: T10, LNX2_3, Q8N448
# LIN7B, Q9HAP6 = target: T11, LIN7B, Q9HAP6
# PARD3B_1, Q8TEW8 = target: T12, PARD3B_1, Q8TEW8
# MAGI2_2, Q86UL8 = target: MAGI2_2, Q86UL8
# Chain of MAGI2_2, Q86UL8 (Q86UL8 410-522): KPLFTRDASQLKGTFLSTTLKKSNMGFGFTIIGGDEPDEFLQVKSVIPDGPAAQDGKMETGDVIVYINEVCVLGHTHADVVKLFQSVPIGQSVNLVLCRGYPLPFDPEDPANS
# Chain of PDLIM1, O00151 (O00151 1-87): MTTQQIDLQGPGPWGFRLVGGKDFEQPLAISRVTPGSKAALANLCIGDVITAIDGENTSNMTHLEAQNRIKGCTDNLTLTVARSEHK
# Chain of HTRA1, Q92743 (Q92743 360-477): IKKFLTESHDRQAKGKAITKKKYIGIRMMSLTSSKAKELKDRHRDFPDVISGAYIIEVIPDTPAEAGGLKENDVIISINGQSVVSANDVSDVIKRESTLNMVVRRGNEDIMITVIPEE
# Chain of FRMPD4, Q14CM0 (Q14CM0 67-160): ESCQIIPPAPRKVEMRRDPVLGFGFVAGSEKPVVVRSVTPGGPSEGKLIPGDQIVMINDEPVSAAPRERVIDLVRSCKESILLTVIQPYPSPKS
# Chain of NHERF2_2, Q15599 (Q15599 142-238): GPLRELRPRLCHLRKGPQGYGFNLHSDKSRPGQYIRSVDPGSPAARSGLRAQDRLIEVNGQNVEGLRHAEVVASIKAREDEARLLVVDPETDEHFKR
# Chain of HTRA2, O43464 (O43464 355-458): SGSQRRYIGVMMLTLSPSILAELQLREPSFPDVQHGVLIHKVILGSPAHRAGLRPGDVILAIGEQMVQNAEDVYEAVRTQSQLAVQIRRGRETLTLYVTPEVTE
# Chain of MAST1, Q9Y2H9 (Q9Y2H9 962-1065): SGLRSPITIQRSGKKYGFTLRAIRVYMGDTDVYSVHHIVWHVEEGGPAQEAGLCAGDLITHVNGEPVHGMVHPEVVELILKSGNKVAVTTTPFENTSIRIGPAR
# Chain of CASK, O14936 (O14936 487-570): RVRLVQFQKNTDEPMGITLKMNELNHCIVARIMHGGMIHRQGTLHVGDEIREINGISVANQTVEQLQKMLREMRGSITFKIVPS
# Chain of GRASP, Q7Z6J2 (Q7Z6J2 96-193): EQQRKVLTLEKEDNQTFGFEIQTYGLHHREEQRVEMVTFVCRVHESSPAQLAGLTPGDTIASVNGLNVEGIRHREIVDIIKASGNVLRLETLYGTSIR
# Chain of IL16_1, Q14005 (Q14005 210-306): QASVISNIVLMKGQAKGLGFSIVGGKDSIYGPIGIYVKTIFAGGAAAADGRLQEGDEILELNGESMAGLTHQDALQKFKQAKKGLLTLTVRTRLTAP
# Chain of NOS1, P29475 (P29475 9-101): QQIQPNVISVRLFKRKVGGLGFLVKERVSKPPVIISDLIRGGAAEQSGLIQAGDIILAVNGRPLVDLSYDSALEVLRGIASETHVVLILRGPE
# Chain of GRIP2_6, Q9C0E4 (Q9C0E4 648-740): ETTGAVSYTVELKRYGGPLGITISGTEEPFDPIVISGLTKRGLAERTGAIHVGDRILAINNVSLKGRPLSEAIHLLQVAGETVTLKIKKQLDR
# Chain of SCRIB_1, Q14160 (Q14160 718-814): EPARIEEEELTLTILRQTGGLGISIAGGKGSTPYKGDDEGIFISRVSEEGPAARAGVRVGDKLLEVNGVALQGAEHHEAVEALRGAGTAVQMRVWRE
Binder,"pKd (MAST1, Q9Y2H9)","pKd (SCRIB_1, Q14160)","pKd (SIPA1L2, Q9P2F8)","pKd (HTRA1, Q92743)","pKd (ARHGEF11, O15085)","pKd (APBA2_2, Q99767)","pKd (PDLIM1, O00151)","pKd (DVL3, Q92997)","pKd (HTRA2, O43464)","pKd (LIN7A, O14910)","pKd (CASK, O14936)","pKd (GRASP, Q7Z6J2)","pKd (NHERF2_2, Q15599)","pKd (ARHGAP21, Q5T5U3)","pKd (IL16_1, Q14005)","pKd (MPP2, Q14168)","pKd (DLG3_3, Q92796)","pKd (GRIP2_6, Q9C0E4)","pKd (SNTA1, Q13424)","pKd (NOS1, P29475)",other results
"NPDALPETLV [ARHGAP6, O43182]",4.38,below the threshold,below the threshold,4.13,4.09,below the threshold,below the threshold,below the threshold,below the threshold,3.61,below the threshold,below the threshold,below the threshold,below the threshold,3.87,below the threshold,below the threshold,below the threshold,5.05,3.92,"pKd (FRMPD4, Q14CM0): below the threshold; pKd (LNX2_3, Q8N448): below the threshold; pKd (LIN7B, Q9HAP6): 3.77; pKd (PARD3B_1, Q8TEW8): below the threshold; pKd (MAGI2_2, Q86UL8): 4.1"
"QRPYRRESEI [KCNJ12, Q14500]",below the threshold,3.83,below the threshold,below the threshold,below the threshold,below the threshold,below the threshold,below the threshold,below the threshold,below the threshold,below the threshold,below the threshold,below the threshold,below the threshold,below the threshold,below the threshold,4.32,below the threshold,3.97,3.53,"pKd (FRMPD4, Q14CM0): below the threshold; pKd (LNX2_3, Q8N448): below the threshold; pKd (LIN7B, Q9HAP6): below the threshold; pKd (PARD3B_1, Q8TEW8): below the threshold; pKd (MAGI2_2, Q86UL8): 4.21"
"GRLLGLETNV [ARHGEF26, Q96DR7]",4.33,4.45,below the threshold,below the threshold,below the threshold,below the threshold,below the threshold,below the threshold,below the threshold,below the threshold,below the threshold,below the threshold,below the threshold,below the threshold,3.78,below the threshold,4.23,below the threshold,4.7,3.88,"pKd (FRMPD4, Q14CM0): below the threshold; pKd (LNX2_3, Q8N448): below the threshold; pKd (LIN7B, Q9HAP6): below the threshold; pKd (PARD3B_1, Q8TEW8): below the threshold; pKd (MAGI2_2, Q86UL8): 3.72"
